Consider 24 molecules from PMC5766609 (Scientific Reports, 2018).

Starred links: 1 amine or outer side, 2 acyl side, 3 side chain; linkers in the order of their positions; H or OH if unused. Non-standard residues stand in square brackets, D forms with d. Residues, ends and D or L forms follow the SMILES beside them. Groups on a side chain read outwards from the residue. No end group written: not given here. *: point of attachment. γGlu = O=C(O)[C@H](CCC(=O)[*:2])N[*:1]; Palmitoyl = CCCCCCCCCCCCCCCC(=O)*

The target of test [1] is T1, human glucagon receptor (GCGR) (Homo sapiens, UniProt P47871).
T1 construct: expressed in transfected cells; host or cells: CHO-JumpIn cells, stably transfected
T1 sequence (P47871 26-477): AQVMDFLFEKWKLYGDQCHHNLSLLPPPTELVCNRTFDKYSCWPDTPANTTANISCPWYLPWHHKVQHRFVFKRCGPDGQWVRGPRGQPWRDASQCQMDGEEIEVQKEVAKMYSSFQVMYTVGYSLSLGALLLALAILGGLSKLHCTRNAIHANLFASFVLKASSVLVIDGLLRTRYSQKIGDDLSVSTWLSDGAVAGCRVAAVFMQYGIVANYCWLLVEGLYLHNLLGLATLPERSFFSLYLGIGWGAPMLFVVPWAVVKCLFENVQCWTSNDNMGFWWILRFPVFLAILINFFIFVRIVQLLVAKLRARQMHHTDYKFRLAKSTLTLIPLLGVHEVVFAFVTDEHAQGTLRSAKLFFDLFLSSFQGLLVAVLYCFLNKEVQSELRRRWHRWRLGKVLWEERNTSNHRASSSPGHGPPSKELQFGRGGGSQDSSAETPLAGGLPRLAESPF
Description: cAMP assay on CHO-JumpIn cells stably transfected with human glucagon receptor (HitHunter cAMP).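 Further: peptides tested as 4-fold serial dilutions starting from a 2 µM solution, cells exposed 1 hr at RT in darkness, cAMP quantified against a cAMP standard curve.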 The test is classed as cell-based. To be noted: Table 2; cAMP accumulation, CHO-JumpIn cells with human GCGR, buffer PBS, 0.1% BSA, 100 μM RO 20-1724, 20% serum; 1 hr at RT; value ± spread; read-out: EC50 GCGR. Background: Changes in cAMP serve as a functional read-out for many G protein-coupled receptors.

The target of test [2] is T2, human GLP-1 receptor (GLP1R) (Homo sapiens, UniProt P43220).
T2 construct: expressed in transfected cells; host or cells: CHO-JumpIn cells, stably transfected
T2 sequence (P43220 24-463): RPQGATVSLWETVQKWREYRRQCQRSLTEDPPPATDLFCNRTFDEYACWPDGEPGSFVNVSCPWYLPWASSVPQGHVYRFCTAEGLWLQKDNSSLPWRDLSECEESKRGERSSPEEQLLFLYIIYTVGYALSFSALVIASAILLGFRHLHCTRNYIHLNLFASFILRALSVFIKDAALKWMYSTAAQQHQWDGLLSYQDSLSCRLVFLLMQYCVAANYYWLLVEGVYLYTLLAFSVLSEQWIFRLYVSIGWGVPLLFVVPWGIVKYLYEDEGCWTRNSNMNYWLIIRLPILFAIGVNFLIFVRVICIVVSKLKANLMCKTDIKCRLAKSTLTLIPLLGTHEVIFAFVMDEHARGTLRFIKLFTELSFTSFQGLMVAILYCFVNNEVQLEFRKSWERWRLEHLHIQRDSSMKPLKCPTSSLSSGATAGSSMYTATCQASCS
The test is described as follows: cAMP assay on CHO-JumpIn cells stably transfected with human GLP-1 receptor (HitHunter cAMP).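 Further: peptides tested as 4-fold serial dilution series, cells exposed 1 hr at RT in the dark, cAMP quantified against a cAMP standard calibration curve.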 The format is cell-based. To be noted: Table 2, cAMP accumulation, buffer PBS, 0.1% BSA, 100 μM RO 20-1724, 20% serum, 1 hr at RT, value ± spread, read-out: EC50 GLP1R.
Description: Briefly, a 2 μM solution of peptide was prepared, and 4-fold serial dilutions were made. 150 nL of the above titration was then dispensed into an Optiplate384 using an Echo555. […] The HitHunter® cAMP Assay kit calibration curve was prepared following the manufacturer’s protocol (DiscoveRx-90-0075L). 30,000 cells/well were added to the peptides, spun briefly at 500 rpm for 15 s and incubated at RT in the dark for 1 hr. The assay was developed as per the manufacturer’s instructions. cAMP accumulation due to GLP1R agonism or GCGR agonism was measured using an EnVision platereader (PerkinElmer), and calibrated using the cAMP standard curve. Data were analyzed using Assay Data Analyzer (ADA).

Test [3] concerns the target glucagon receptor (human) (UniProt P47871).
Test [4] addresses human GLP-1 receptor (human) (UniProt P43220).
Test [5] has as its target glucagon receptor (human) (UniProt P47871). This is another data set of the same source.
The target of test [6] is human GLP-1 receptor (human) (UniProt P43220). This is another data set of the same source.
human GLP-1 receptor (human), sequence (P43220 24-463): as above

glucagon receptor (human), sequence (P47871 26-477): as the sequence (P47871 26-477) above

In general, EC50 refers to the concentration at which the effect is half-maximal. As to `CC(C)C[C@H](NC(=O)[C@H](Cc1ccc(O)cc1)NC(=O)[C@H](CCCCN)NC(=O)[C@H](CO)NC(=O)[C@H](Cc1ccc(O)cc1)NC(=O)[C@H](CC(=O)O)NC(=O)[C@H](CO)NC(=O)[C@@H](NC(=O)[C@H](Cc1ccccc1)NC(=O)[C@@H](NC(=O)CNC(=O)[C@H](CCC(N)=O)NC(=O)[C@H](CO)NC(=O)[C@@H](N)Cc1c[nH]cn1)[C@@H](C)O)[C@@H](C)O)C(=O)N[C@@H](CC(=O)O)C(=O)N[C@@H](CO)C(=O)N[C@@H](CCCCN)C(=O)N[C@@H](CCCNC(=N)N)C(=O)N[C@@H](C)C(=O)N[C@@H](Cc1c[nH]cn1)C(=O)N[C@@H](CC(=O)O)C(=O)N[C@@H](Cc1ccccc1)C(=O)N[C@H](C(=O)N[C@@H](CCC(N)=O)C(=O)N[C@@H](Cc1c[nH]c2ccccc12)C(=O)N[C@@H](CC(C)C)C(=O)N[C@@H](CC(C)C)C(=O)N[C@@H](CC(N)=O)C(=O)N[C@H](C(N)=O)[C@@H](C)O)C(C)C` [Peptide 24] (H-HSQGTFTSDYSKYLDSKRAHDFVQWLLNT-NH2), the results for the EC50 in test [1] and in test [2] were 0.026 ± 0.001 nM and 0.018 ± 0.001 nM, respectively.

Regarding `CC(C)C[C@H](NC(=O)[C@H](Cc1ccc(O)cc1)NC(=O)[C@H](CCCCN)NC(=O)[C@H](CO)NC(=O)[C@H](Cc1ccc(O)cc1)NC(=O)[C@H](CC(=O)O)NC(=O)[C@H](CO)NC(=O)[C@@H](NC(=O)[C@H](Cc1ccccc1)NC(=O)[C@@H](NC(=O)CNC(=O)[C@H](CCC(N)=O)NC(=O)[C@H](CO)NC(=O)[C@@H](N)Cc1c[nH]cn1)[C@@H](C)O)[C@@H](C)O)C(=O)N[C@@H](CC(=O)O)C(=O)N[C@@H](Cc1c[nH]c2ccccc12)C(=O)N[C@@H](CCCNC(=N)N)C(=O)N[C@@H](CCCNC(=N)N)C(=O)N[C@@H](C)C(=O)N[C@@H](CCC(N)=O)C(=O)N[C@@H](CC(=O)O)C(=O)N[C@@H](Cc1ccccc1)C(=O)N[C@H](C(=O)N[C@@H](CCC(N)=O)C(=O)N[C@@H](Cc1c[nH]c2ccccc12)C(=O)N[C@@H](CC(C)C)C(=O)N[C@@H](CC(C)C)C(=O)N[C@@H](CC(N)=O)C(=O)N[C@H](C(N)=O)[C@@H](C)O)C(C)C` [Peptide 6], the EC50 came out at 0.032 ± 0.013 nM in test [1] and 0.063 ± 0.034 nM in test [2].

In test [3], HSQGTFFSDYSKYLDSRRAQDFVQWLLET-NH2 [Peptide 34] registered an EC50 GCGR (nM); cAMP assay on CHO-JumpIn cells with human GCGR of 0.027 nM. Also, in test [4], the EC50 GLP1R (nM); cAMP assay on CHO-JumpIn cells with human GLP1R is 51.9 nM.

HSQGTFTSDYRKYLDERAAWDFVQWLMNT-NH2 [Peptide 3] came in with an EC50 GCGR (nM); cAMP assay on CHO-JumpIn cells with human GCGR in test [3] of 1.35 nM. The EC50 GLP1R (nM); cAMP assay on CHO-JumpIn cells with human GLP1R in test [4] turned out to be 0.427 nM.

The molecule HSQGIFFSDYSKYLDSRRAQDFVQWLMNT-NH2 [Peptide 30] registered an EC50 GCGR (nM); cAMP assay on CHO-JumpIn cells with human GCGR in test [3] of 0.026 nM. Further, the EC50 GLP1R (nM); cAMP assay on CHO-JumpIn cells with human GLP1R in test [4] is > 200 nM.

B1: Peptide 36 (peptide)
peptide: H[dS]QGTFTSDK([γGlu-γGlu-Palmitoyl])SKYLDSRRAHDFVQWLLNT-NH2
modifications: N-terminus assumed
SMILES: CCCCCCCCCCCCCCCC(=O)N[C@@H](CCC(=O)N[C@@H](CCC(=O)NCCCC[C@H](NC(=O)[C@H](CC(=O)O)NC(=O)[C@H](CO)NC(=O)[C@@H](NC(=O)[C@H](Cc1ccccc1)NC(=O)[C@@H](NC(=O)CNC(=O)[C@H](CCC(N)=O)NC(=O)[C@@H](CO)NC(=O)[C@@H](N)Cc1c[nH]cn1)[C@@H](C)O)[C@@H](C)O)C(=O)N[C@@H](CO)C(=O)N[C@@H](CCCCN)C(=O)N[C@@H](Cc1ccc(O)cc1)C(=O)N[C@@H](CC(C)C)C(=O)N[C@@H](CC(=O)O)C(=O)N[C@@H](CO)C(=O)N[C@@H](CCCNC(=N)N)C(=O)N[C@@H](CCCNC(=N)N)C(=O)N[C@@H](C)C(=O)N[C@@H](Cc1c[nH]cn1)C(=O)N[C@@H](CC(=O)O)C(=O)N[C@@H](Cc1ccccc1)C(=O)N[C@H](C(=O)N[C@@H](CCC(N)=O)C(=O)N[C@@H](Cc1c[nH]c2ccccc12)C(=O)N[C@@H](CC(C)C)C(=O)N[C@@H](CC(C)C)C(=O)N[C@@H](CC(N)=O)C(=O)N[C@H](C(N)=O)[C@@H](C)O)C(C)C)C(=O)O)C(=O)O
Take B1: the EC50 hGCGR (nM); cAMP assay on CHO-JumpIn cells with human GCGR in test [5] stood at 0.023 nM. Also, in test [6], the EC50 hGLP1 (nM); cAMP assay on CHO-JumpIn cells with human GLP1R came out at 0.05 nM.

On to HSQGTFTSDYSKYLDIGRAQDFVQWLLNT-NH2 [Peptide 4], for which, in test [3], the EC50 GCGR (nM); cAMP assay on CHO-JumpIn cells with human GCGR was 0.026 nM. The same molecule gave an EC50 GLP1R (nM); cAMP assay on CHO-JumpIn cells with human GLP1R in test [4] of 1.33 nM.

In turn, HSQGTFTSDYSKYLDSIRAQDFVQWLMDT-NH2 [Peptide 18] displayed an EC50 GCGR (nM); cAMP assay on CHO-JumpIn cells with human GCGR in test [3] of 0.037 nM. For the same molecule, the EC50 GLP1R (nM); cAMP assay on CHO-JumpIn cells with human GLP1R in test [4] worked out at 0.056 nM.

Consider ASMFTFFSDYSKYLDSRRAQDFVQWLMLT-NH2 [Peptide 15], for which the EC50 GLP1R (nM); cAMP assay on CHO-JumpIn cells with human GLP1R in test [4] was > 200 nM.

HSVGNFWSDYSKYLDSRRAQDFVQWLMLT-NH2 [Peptide 1] had an EC50 GCGR (nM); cAMP assay on CHO-JumpIn cells with human GCGR in test [3] of 8.45 nM. In addition, the EC50 GLP1R (nM); cAMP assay on CHO-JumpIn cells with human GLP1R in test [4] stood at 16.7 nM.

In test [3], HSQGTFTSDYSKYLDSKRAHDFVQWLLNT-NH2 [Peptide 24] yielded an EC50 GCGR (nM); cAMP assay on CHO-JumpIn cells with human GCGR of 0.026 nM. The EC50 GLP1R (nM); cAMP assay on CHO-JumpIn cells with human GLP1R in test [4] was determined as 0.018 nM.

Consider KALGQFTFTSDYSKYLDSRRAQDFVQWLMNT-NH2 [Peptide 21], for which, in test [3], the EC50 GCGR (nM); cAMP assay on CHO-JumpIn cells with human GCGR worked out at 4.18 nM. Also, the EC50 GLP1R (nM); cAMP assay on CHO-JumpIn cells with human GLP1R in test [4] was determined as 14.8 nM.

As to INHEQWAFTSDYSKYLDSRRAQDFVQWLMNT-NH2 [Peptide 14], the EC50 GCGR (nM); cAMP assay on CHO-JumpIn cells with human GCGR in test [3] came out at 2.6 nM. In test [4], this molecule gave an EC50 GLP1R (nM); cAMP assay on CHO-JumpIn cells with human GLP1R of 16.7 nM.

The molecule HSQGTFTSDYSKYLDSRRAHDFVQWLLNT-NH2 [Peptide 11] yielded an EC50 GCGR (nM); cAMP assay on CHO-JumpIn cells with human GCGR in test [3] of 0.018 nM. In addition, the EC50 GLP1R (nM); cAMP assay on CHO-JumpIn cells with human GLP1R in test [4] came to 0.018 nM.

In test [3], HSQGTFTSDYSKYLDSRMAYDFVQWLMNT-NH2 [Peptide 33] showed an EC50 GCGR (nM); cAMP assay on CHO-JumpIn cells with human GCGR of 0.079 nM. In addition, in test [4], the EC50 GLP1R (nM); cAMP assay on CHO-JumpIn cells with human GLP1R turned out to be 0.059 nM.

HSQGTFTSDYSKYLDELRAYDFVQWLMNT-NH2 [Peptide 10]: in test [3], the EC50 GCGR (nM); cAMP assay on CHO-JumpIn cells with human GCGR was determined as 0.057 nM. Also, in test [4], the EC50 GLP1R (nM); cAMP assay on CHO-JumpIn cells with human GLP1R was 0.038 nM.

HSQGTFTSDYSKYLDSRRAQDFVQWLLDS-NH2 [Peptide 35] returned an EC50 GCGR (nM); cAMP assay on CHO-JumpIn cells with human GCGR in test [3] of 0.0019 nM. The same molecule yielded an EC50 GLP1R (nM); cAMP assay on CHO-JumpIn cells with human GLP1R in test [4] of 0.018 nM.

As for HSQGTFTSDYSKYLDSRRAQDFVDWLINS-NH2 [Peptide 28], in test [3], the EC50 GCGR (nM); cAMP assay on CHO-JumpIn cells with human GCGR was found to be 0.016 nM. In addition, the EC50 GLP1R (nM); cAMP assay on CHO-JumpIn cells with human GLP1R in test [4] is 0.007 nM.

HSQGTFTSDYSKYLDSRRAQDFVQWLINY-NH2 [Peptide 13]: the EC50 GCGR (nM); cAMP assay on CHO-JumpIn cells with human GCGR in test [3] was 0.078 nM. This molecule gave an EC50 GLP1R (nM); cAMP assay on CHO-JumpIn cells with human GLP1R in test [4] of 0.039 nM.

For the molecule HSQGTFTSDYSKYLDSRRAQDFVMTSMNT-NH2 [Peptide 26], in test [3], the EC50 GCGR (nM); cAMP assay on CHO-JumpIn cells with human GCGR is > 200 nM. This molecule returned an EC50 GLP1R (nM); cAMP assay on CHO-JumpIn cells with human GLP1R in test [4] of 8.96 nM.

Take HSQGTFTSDYSKYLDSLMAQDFVQWLMST-NH2 [Peptide 5]: in test [3], the EC50 GCGR (nM); cAMP assay on CHO-JumpIn cells with human GCGR was 0.025 nM. The molecule also yielded an EC50 GLP1R (nM); cAMP assay on CHO-JumpIn cells with human GLP1R in test [4] of 0.133 nM.

Regarding HSQGTFLHDYYYYLDSRRAQDFVQWLMDT-NH2 [Peptide 17], in test [3], the EC50 GCGR (nM); cAMP assay on CHO-JumpIn cells with human GCGR amounted to 0.527 nM. Besides, in test [4], the EC50 GLP1R (nM); cAMP assay on CHO-JumpIn cells with human GLP1R is > 200 nM.

For the molecule HSQGTFTSDYSKYVEDRRAHDFVQWLMNT-NH2 [Peptide 2], the EC50 GCGR (nM); cAMP assay on CHO-JumpIn cells with human GCGR in test [3] was found to be 2.24 nM. Besides, the EC50 GLP1R (nM); cAMP assay on CHO-JumpIn cells with human GLP1R in test [4] stood at 0.184 nM.

The molecule HSQGTFTSDYIKLLDSRRAQDFVQWLMNT-NH2 [Peptide 7] registered an EC50 GCGR (nM); cAMP assay on CHO-JumpIn cells with human GCGR in test [3] of 0.301 nM. This molecule also had an EC50 GLP1R (nM); cAMP assay on CHO-JumpIn cells with human GLP1R in test [4] of 78.3 nM.
